Values of other authors in paper PMC5067215.

Target: CD74 (Homo sapiens) (UniProt P04233)
Sequence of UniProt P04233 (P04233 73-296): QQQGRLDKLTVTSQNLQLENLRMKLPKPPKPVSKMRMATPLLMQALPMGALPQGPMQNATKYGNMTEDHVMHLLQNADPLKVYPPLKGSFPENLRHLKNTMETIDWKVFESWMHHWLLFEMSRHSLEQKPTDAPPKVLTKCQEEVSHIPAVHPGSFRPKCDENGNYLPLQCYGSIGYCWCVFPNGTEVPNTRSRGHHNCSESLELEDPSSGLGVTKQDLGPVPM

Kd: 5.42 nM
Substance: D-DT (from UniProt P30046)
